In patent publication US20130129752A1 one finds Cy3+ K562 cells/Total K562 cells, % (in vivo Cy3-siRNA delivery, SCID mouse lung, flow cytometry) and Cy3-siRNA delivery to PBMC subsets (flow cytometry), Cy3+ T and B lymphocytes data, which are given here for 3 substances.

Holding throughout (experiment): cell-based or functional assay
For assay [1], the target named is human HA LFA-1 stably expressed on K562 cells (K562-HA LFA-1) (human) (UniProt P20701).
Assay [2] addresses human WT LFA-1 (alpha L beta 2) on cells, activation state not specified at the place cited (human) (UniProt P20701).
The target of assay [3] is human LFA-1 on cells in the unstimulated, low-affinity conformation (human) (UniProt P20701).
human LFA-1 on cells in the unstimulated, low-affinity conformation (human), sequence (P20701 26-1170, chain 1 of 2): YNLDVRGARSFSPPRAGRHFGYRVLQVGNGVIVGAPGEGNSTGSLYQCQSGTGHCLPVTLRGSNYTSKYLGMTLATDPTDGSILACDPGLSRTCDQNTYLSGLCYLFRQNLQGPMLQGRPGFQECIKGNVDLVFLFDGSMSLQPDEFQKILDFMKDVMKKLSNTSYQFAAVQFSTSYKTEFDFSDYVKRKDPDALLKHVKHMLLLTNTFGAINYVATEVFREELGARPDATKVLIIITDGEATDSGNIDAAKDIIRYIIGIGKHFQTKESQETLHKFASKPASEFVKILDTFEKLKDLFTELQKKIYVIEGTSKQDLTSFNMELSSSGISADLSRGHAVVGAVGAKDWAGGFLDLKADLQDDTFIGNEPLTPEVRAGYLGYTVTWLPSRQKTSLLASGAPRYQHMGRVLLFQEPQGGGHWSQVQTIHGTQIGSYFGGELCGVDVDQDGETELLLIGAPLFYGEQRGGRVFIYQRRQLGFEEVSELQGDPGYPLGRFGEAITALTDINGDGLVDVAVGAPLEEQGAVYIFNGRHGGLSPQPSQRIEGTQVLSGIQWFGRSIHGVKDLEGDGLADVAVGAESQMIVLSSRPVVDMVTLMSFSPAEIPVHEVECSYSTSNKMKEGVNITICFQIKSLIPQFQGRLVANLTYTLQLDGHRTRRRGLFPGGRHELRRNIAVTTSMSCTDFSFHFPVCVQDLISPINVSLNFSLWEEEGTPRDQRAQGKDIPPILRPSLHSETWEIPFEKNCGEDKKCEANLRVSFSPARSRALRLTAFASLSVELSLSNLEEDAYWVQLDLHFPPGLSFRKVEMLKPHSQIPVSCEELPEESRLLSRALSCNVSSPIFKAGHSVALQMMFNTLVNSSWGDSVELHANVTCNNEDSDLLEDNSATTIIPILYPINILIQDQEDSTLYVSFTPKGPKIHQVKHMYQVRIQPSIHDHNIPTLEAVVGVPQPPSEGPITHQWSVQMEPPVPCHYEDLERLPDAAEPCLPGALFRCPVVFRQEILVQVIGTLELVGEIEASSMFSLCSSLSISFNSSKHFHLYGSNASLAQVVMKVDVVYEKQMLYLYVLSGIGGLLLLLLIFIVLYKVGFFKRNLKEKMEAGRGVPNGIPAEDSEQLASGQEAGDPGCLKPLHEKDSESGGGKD
human LFA-1 on cells in the unstimulated, low-affinity conformation (human), sequence (P05107 23-769, chain 2 of 2, further chain): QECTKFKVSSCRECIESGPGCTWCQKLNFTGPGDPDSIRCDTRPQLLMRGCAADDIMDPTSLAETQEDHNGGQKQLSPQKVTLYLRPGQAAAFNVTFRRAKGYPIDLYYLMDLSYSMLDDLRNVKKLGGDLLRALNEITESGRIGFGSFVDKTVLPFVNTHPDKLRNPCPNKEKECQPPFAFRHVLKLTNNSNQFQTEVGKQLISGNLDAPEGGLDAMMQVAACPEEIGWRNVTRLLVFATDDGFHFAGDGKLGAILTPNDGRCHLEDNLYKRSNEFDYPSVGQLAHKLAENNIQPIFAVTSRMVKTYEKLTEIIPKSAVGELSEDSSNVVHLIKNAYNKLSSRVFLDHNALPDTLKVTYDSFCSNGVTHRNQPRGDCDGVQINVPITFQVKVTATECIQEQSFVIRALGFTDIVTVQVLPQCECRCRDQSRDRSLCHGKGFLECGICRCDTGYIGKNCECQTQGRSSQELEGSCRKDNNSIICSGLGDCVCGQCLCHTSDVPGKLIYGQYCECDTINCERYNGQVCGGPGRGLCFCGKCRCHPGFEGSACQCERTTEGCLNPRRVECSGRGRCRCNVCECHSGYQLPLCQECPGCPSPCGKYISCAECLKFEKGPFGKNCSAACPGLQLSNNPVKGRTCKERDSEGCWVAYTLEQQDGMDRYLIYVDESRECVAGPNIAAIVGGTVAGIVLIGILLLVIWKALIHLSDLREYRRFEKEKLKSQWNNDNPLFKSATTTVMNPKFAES

human WT LFA-1 (alpha L beta 2) on cells, activation state not specified at the place cited (human), sequence (P20701 26-1170, chain 1 of 2): as the sequence (P20701 26-1170, chain 1 of 2) above
human WT LFA-1 (alpha L beta 2) on cells, activation state not specified at the place cited (human), sequence (P05107 23-769, chain 2 of 2, further chain): as the sequence (P05107 23-769, chain 2 of 2, further chain) above

With “AL-57-protamine fusion protein (scFv AL-57 fused to truncated human protamine, residues 8-29, His6 tag) (from UniProt P04553 8-29)”, the Cy3+ K562 cells/Total K562 cells, % (in vivo Cy3-siRNA delivery, SCID mouse lung, flow cytometry) is 88.1% in assay [1] and 23.3% in assay [2]. In assay [3], the Cy3-siRNA delivery to PBMC subsets (flow cytometry), Cy3+ T and B lymphocytes lay in the range of 1 to 2%.
“ML39-protamine fusion protein (control scFv-PF fusion protein that recognizes human ErbB2)”: the Cy3+ K562 cells/Total K562 cells, % (in vivo Cy3-siRNA delivery, SCID mouse lung, flow cytometry) in assay [1] was found to be 4.2%; in assay [2], 4.7%.
Regarding “TS1/22-protamine fusion protein (scFv TS1/22 fused to human protamine residues 8-29, His6 tag) (from UniProt P04553 8-29)”, the figures for the Cy3+ K562 cells/Total K562 cells, % (in vivo Cy3-siRNA delivery, SCID mouse lung, flow cytometry) in assay [1] and in assay [2] were 87.4% and 88.5%, respectively.
